Experimental data published in PMC5767869.
pKd: −log10 of the molar value.

What was measured:
[1] = target: α-RSV (clone B21M) human IgG1 F405L lacking hinge disulfides (C226S/C229S), half-Ab (human); experiment: FRET or BRET; Fab-arm exchange between donor (Alexa Fluor 488)- and acceptor (Alexa Fluor 594)-labelled IgG1C→S Abs, 200 nM each, PBS, 25 °C, no reductant; monoexponential exchange rate taken as the rate of dissociation of the full Ab (half-Ab dimer) into half-Abs
[2] = target: α-gp120 (clone b12) human IgG1 K409R lacking hinge disulfides (C226S/C229S), half-Ab (human); experiment: as above
[3] = target: Alexa Fluor 488-labelled F405L half-Fc (IdeS fragment of α-RSV F405L IgG1WT) (human); experiment: fluorescence correlation spectroscopy (FCS); constant 50 pM Alexa Fluor 488-labelled half-Fc, 1:3 or 1:4 dilutions of unlabelled half-Ab (IgG1C→S), equilibrated at room temperature overnight; diffusion times of all four half-Fc/half-Ab combinations globally fitted with one KD each for F405L homodimerisation, K409R homodimerisation and heterodimerisation
[4] = target: Alexa Fluor 488-labelled K409R half-Fc (IdeS fragment of α-gp120 K409R IgG1WT) (human); experiment: as above
[5] = target: α-RSV (clone B21M) human IgG1 F405L lacking hinge disulfides (C226S/C229S), half-Ab (human); experiment: hydrophobic interaction chromatography; products of cFAE analysed for the share of bsAb

Sequence of α-RSV (clone B21M) human IgG1 F405L lacking hinge disulfides (C226S/C229S), half-Ab (human) (heavy, as listed by the source, chain 1 of 2): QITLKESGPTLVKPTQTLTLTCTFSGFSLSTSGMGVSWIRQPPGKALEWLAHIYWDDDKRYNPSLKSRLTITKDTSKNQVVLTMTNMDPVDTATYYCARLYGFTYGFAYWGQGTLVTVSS
Sequence of α-RSV (clone B21M) human IgG1 F405L lacking hinge disulfides (C226S/C229S), half-Ab (human) (light, as listed by the source, chain 2 of 2): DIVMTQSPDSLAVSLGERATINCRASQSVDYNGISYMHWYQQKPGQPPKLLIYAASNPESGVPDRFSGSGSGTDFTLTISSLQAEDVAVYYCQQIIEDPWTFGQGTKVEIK

koff [1]: 0.000198 s⁻¹
koff [2]: 0.000673 s⁻¹
pKd [3]: 10.18
pKd [4]: 9.47
percent bsAb after cFAE [5]: > 90%
Substance: α-gp120 (clone b12) human IgG1 K409R lacking hinge disulfides (C226S/C229S), half-Ab (antibody)
